The results in this text go back to IntAct's records for PubMed 18682563.

B1: Inner tegument protein (Human herpesvirus 1 (strain 17) (HHV-1)), P10221 (parent)
chain: MADRGLPSEAPVVTTSPAGPPSDGPMQRLLASLAGLRQPPTPTAETANGADDPAFLATAKLRAAMAAFLLSGTAIAPADARDCWRPLLEHLCALHRAHGLPETALLAENLPGLLVHRLVVALPEAPDQAFREMEVIKDTILAVTGSDTSHALDSAGLRTAAALGPVRVRQCAVEWIDRWQTVTKSCLAMSPRTSIEALGETSLKMAPVPLGQPSANLTTPAYSLLFPAPFVQEGLRFLALVSNRVTLFSAHLQRIDDATLTPLTRALFTLALVDEYLTTPERGAVVPPPLLAQFQHTVREIDPAIMIPPLEANKMVRSREEVRVSTALSRVSPRSACAPPGTLMARVRTDVAVFDPDVPFLSSSALAVFQPAVSSLLQLGEQPSAGAQQRLLALLQQTWTLIQNTNSPSVVINTLIDAGFTPSHCTHYLSALEGFLAAGVPARTPTGHGLGEVQQLFGCIALAGSNVFGLAREYGYYANYVKTFRRVQGASEHTHGRLCEAVGLSGGVLSQTLARIMGPAVPTEHLASLRRALVGEFETAERRFSSGQPSLLRETALIWIDVYGQTHWDITPTTPATPLSALLPVGQPSHAPSVHLAAATQIRFPALEGIHPNVLADPGFVPYVLALVVGDALRATCSAAYLPRPVEFALRVLAWARDFGLGYLPTVEGHRTKLGALITLLEPAARGGLGPTMQMADNIEQLLRELYVISRGAVEQLRPLVQLQPPPPPEVGTSLLLISMYALAARGVLQDLAERADPLIRQLEDAIVLLRLHMRTLSAFFECRFESDGRRLYAVVGDTPDRLGPWPPEAMGDAVSQYCSMYHDAKRALVASLASLRSVITETTAHLGVCDELAAQVSHEDNVLAVVRREIHGFLSVVSGIHARASKLLSGDQVPGFCFMGQFLARWRRLSACYQAARAAAGPEPVAEFVQELHDTWKGLQTERAVVVAPLVSSADQRAAAIREVMAHAPEDAPPQSPAADRVVLTSRRDLGAWGDYSLGPLGQTTAVPDSVDLSRQGLAVTLSMDWLLMNELLRVTDGVFRASAFRPLAGPESPRDLEVRDAGNSLPAPMPMDAQKPEAYGHGPRQADREGAPHSNTPVEDDEMIPEDTVAPPTDLPLTSYQ
partner: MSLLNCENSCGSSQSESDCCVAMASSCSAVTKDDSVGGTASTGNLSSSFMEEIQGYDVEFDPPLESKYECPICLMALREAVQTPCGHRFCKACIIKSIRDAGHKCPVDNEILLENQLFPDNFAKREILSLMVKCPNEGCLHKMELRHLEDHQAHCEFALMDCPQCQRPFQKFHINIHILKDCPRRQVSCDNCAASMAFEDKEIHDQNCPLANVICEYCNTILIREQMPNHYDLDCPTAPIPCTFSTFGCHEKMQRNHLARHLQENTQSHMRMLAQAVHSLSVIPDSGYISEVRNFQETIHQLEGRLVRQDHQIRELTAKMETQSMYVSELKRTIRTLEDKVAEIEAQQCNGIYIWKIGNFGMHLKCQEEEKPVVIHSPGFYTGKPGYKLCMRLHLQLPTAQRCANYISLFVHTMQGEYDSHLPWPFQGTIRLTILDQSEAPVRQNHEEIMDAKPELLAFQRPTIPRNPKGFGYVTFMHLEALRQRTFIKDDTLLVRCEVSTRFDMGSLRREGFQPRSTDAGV

In the assay the parent is B1. To be noted: with traf6_human TRAF6, Q9Y4K3.
Regarding E1101A, the “effect of a mutation on the interaction” value was “decreasing interaction strength”.
